Source: paper PMC3398583, “Functional Cloning and Expression of the Schizophyllum commune Glucuronoyl Esterase Gene and Characterization of the Recombinant Enzyme” (Biotechnology Research International, 2012)

Substrate: COC(=O)[C@H]1O[C@H](O[C@H]2[C@H](Oc3ccc([N+](=O)[O-])cc3)OC[C@@H](O)[C@@H]2O)[C@H](O)[C@@H](O)[C@@H]1OC
Test: purified protein
Format: biochemical, Schizophyllum commune
Conditions: 50 mM Na phosphate, pH 6.0, 0.08-0.4 mM substrate, 0.157 μM enzyme

B1: rScGE (recombinant Schizophyllum commune glucuronoyl esterase) (Schizophyllum commune H4-8) (protein)
chain: LSAALLAIAAFANVASAQDCDTPATVSGYSNSALPDPFTFNDGSPVTTAEDWECRRSQILALIQGYESGAAPPEPESVTGTASGNSLSVQVSYGGKSITFNNSITYPSGTAPAEGWPVIIAYEFPSLPIPSNVATLSFQNSAMGKQDSTSSRGQGLFYDLYGSSSNASAMTAWAWGVSRIIDAIESTPDAKLNPAAVGVTGCSRNGKGALMAGALEPRVALTLPQESGSGGDACWRLSRYEEQQGSQVQTATEIVGENCWFSAGFDQYVNNLDSLPYDHHLLAALVAPRGLISYANTDYVWLSGMSSFGCMTAAHAVYEALGVPENHGFEQVGGHSHCQWPSQLDGSLNAFINKFLLGQDVSTDYFESNNQFNGVTWSESQWINWETPTLN
notes: synthetic gene, all 393 residues except start Met (native signal peptide 1-19 in the construct); pGAPZalpha-A alpha-factor secretion, C-terminal myc and His tags; Pichia pastoris SMD1168; glycosylated, 53 kD (46 kD after N-glycosidase F)
Km: 250 µM | kcat: 9.27 s⁻¹
